Source: patent US20190134153A1, “IMMUNOMODULATORY EFFECT OF INHALED KINASE INHIBITOR PEPTIDES IN LUNG” (MOERAE MATRIX, INC., priority 2017, published 2019)

How the values were obtained:
Assay in all cases: Kinase Profiling Assay
Assay type in all cases: biochemical
Conditions in all cases: 100 μM
[1] = target: T1, PhKγ2(h) (Homo sapiens, UniProt P15735)
T1 sequence (P15735 1-406): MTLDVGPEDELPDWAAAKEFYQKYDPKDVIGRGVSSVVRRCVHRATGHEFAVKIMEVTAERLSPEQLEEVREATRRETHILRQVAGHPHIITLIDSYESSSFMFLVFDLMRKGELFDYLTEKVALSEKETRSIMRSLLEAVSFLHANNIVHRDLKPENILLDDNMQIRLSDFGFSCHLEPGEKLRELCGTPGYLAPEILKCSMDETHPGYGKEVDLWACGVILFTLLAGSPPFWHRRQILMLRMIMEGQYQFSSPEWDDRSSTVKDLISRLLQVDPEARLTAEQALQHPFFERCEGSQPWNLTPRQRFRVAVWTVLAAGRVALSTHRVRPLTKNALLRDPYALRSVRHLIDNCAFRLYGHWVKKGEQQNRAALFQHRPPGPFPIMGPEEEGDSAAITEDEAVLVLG

[2] = target: cKit(V654A)(h) (Homo sapiens, UniProt P10721, V654A)
[3] = target: T2, SGK(h) (Homo sapiens, UniProt O00141)
T2 sequence (O00141 1-431): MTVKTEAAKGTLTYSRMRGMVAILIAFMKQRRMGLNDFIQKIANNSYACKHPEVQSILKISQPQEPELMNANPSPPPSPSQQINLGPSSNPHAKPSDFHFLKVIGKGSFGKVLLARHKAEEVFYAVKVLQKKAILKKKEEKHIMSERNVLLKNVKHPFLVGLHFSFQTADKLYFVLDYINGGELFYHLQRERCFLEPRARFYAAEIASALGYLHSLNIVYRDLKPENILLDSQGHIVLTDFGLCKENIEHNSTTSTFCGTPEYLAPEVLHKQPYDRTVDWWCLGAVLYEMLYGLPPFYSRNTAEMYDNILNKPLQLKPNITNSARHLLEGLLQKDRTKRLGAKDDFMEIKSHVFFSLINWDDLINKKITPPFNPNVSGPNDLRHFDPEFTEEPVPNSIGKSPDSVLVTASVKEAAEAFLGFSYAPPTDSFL

[4] = target: GSK3β(h) (Homo sapiens, UniProt P49841)
[5] = target: Fes(h) (Homo sapiens, UniProt P07332)
[6] = target: T3, SGK2(h) (Homo sapiens, UniProt Q9HBY8)
T3 sequence (Q9HBY8 1-367): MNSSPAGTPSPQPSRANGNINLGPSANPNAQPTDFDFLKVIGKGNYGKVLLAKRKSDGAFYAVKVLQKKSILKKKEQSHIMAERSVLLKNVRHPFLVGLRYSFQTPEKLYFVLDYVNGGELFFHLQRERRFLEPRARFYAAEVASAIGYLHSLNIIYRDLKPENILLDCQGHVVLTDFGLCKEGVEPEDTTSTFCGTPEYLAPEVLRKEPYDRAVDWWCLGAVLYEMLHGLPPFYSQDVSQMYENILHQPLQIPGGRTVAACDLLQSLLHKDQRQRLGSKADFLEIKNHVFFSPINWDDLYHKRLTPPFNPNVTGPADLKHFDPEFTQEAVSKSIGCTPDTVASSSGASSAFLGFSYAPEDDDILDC

[7] = target: CaMKIIβ(h) (Homo sapiens, UniProt Q13554)
[8] = target: T4, GRK7(h) (Homo sapiens, UniProt Q8WTQ7)
T4 sequence (Q8WTQ7 1-553): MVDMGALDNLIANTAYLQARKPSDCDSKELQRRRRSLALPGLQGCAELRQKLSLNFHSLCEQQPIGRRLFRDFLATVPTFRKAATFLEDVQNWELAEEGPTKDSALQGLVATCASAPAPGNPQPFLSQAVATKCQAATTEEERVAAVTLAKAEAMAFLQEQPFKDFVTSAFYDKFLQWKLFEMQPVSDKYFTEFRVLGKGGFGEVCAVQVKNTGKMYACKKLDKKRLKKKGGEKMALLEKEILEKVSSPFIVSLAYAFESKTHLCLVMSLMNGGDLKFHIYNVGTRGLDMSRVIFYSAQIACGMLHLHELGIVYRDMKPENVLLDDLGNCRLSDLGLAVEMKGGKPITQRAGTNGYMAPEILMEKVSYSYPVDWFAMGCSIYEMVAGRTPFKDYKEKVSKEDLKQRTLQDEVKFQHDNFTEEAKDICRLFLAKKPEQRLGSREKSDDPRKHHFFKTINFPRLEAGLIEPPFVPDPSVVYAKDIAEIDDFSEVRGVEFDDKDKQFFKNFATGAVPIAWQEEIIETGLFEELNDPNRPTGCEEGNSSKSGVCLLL

[9] = target: PKCη(h) (Homo sapiens, UniProt P24723)
[10] = target: Met(Y1248D)(h) (Homo sapiens, UniProt P08581, Y1230D)

GSK3β(h), sequence (P49841 whole entry): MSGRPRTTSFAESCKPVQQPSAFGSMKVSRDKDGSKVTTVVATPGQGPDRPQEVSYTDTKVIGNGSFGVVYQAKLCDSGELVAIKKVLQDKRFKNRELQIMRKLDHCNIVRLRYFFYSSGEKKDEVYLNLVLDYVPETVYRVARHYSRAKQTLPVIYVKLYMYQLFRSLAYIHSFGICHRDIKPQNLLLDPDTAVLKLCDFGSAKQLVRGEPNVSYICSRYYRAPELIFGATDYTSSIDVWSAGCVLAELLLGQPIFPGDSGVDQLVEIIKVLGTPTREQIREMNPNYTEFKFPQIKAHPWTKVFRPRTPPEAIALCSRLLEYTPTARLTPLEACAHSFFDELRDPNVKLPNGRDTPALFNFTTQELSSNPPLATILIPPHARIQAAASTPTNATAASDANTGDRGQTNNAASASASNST
CaMKIIβ(h), sequence (Q13554 whole entry): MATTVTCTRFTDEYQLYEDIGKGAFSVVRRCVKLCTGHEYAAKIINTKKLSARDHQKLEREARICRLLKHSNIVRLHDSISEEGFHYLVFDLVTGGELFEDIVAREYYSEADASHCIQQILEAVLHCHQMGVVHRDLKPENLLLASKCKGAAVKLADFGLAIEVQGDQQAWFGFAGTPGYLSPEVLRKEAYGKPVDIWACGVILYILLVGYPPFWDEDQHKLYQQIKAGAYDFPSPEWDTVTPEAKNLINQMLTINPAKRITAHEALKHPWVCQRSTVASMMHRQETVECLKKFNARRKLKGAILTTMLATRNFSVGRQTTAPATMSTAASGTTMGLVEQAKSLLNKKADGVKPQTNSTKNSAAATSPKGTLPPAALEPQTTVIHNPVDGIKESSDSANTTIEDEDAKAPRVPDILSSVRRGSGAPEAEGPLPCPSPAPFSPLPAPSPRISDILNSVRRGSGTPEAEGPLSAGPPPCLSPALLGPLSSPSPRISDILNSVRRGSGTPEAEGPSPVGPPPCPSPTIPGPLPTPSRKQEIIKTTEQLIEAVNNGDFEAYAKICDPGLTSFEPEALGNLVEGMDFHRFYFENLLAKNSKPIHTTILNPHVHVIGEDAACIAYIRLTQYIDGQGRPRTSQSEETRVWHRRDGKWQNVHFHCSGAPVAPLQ
PKCη(h), sequence (P24723 whole entry): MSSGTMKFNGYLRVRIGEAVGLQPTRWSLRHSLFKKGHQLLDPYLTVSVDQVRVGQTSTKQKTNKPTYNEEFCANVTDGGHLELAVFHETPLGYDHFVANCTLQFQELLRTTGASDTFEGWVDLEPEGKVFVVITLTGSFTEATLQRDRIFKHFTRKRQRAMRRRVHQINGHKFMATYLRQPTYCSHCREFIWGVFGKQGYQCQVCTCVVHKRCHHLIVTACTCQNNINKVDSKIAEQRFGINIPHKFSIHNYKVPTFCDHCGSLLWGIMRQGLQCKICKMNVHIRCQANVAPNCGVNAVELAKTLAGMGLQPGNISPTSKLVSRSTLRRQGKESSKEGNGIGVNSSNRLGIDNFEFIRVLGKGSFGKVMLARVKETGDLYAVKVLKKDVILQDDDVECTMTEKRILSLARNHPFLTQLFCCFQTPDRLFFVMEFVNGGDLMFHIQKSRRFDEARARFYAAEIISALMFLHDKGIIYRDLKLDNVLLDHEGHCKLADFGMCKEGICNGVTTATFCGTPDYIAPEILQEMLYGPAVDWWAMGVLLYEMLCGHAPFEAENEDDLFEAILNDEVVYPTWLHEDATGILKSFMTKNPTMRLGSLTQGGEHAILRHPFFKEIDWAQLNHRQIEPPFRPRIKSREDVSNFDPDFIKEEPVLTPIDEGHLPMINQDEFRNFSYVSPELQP
Fes(h), sequence (P07332 whole entry): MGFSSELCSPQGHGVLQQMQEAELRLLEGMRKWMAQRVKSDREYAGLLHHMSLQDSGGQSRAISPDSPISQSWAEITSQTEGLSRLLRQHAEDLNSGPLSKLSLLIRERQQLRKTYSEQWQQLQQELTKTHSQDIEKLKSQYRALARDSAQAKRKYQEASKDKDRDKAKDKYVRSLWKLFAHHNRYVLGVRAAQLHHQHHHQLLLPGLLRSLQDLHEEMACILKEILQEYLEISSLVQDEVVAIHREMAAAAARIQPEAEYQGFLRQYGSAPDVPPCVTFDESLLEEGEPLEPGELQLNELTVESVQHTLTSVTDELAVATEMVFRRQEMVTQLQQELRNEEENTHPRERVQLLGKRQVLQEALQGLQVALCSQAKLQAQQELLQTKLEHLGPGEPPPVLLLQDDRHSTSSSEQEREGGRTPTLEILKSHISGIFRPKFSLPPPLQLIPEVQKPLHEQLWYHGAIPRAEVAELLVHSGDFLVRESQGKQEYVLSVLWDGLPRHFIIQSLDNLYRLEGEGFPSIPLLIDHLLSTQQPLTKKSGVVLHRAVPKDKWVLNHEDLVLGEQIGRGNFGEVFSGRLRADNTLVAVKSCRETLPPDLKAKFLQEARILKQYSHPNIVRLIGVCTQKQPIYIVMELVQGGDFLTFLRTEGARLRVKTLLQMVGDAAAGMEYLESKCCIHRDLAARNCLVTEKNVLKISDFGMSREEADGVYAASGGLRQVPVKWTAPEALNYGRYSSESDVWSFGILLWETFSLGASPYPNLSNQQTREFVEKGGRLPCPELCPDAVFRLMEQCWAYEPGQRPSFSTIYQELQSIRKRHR

Row | Sequence | % activity [1] | % activity [2] | % activity [3] | % activity [4] | % activity [5] | % activity [6] | % activity [7] | % activity [8] | % activity [9] | % activity [10]
1 | FAKLAARLYRKALARQLGVAA [MMI-0300] | 46% | 134% | 48% | 205% | 20% | 56% | 2% | 122% | – | –
2 | HRRIKAWLKKIKALARQLGVAA [MMI-0500] | 16% | 223% | 2% | 238% | 23% | −1% | 3% | 93% | 45% | 218%
3 | KAFAKLAARLYRKALARQLGVAA [MMI-0400] | 38% | 150% | 54% | 202% | 16% | 98% | 11% | 100% | 98% | 31%
4 | YARAAARQARAKALNRQLGVA [MMI-0200] | 86% | – | – | 132% | 74% | – | 53% | 124% | 101% | 118%
